Patent publication US20250312444A1

Columns and labels:
Test in all cases: cell-based or functional assay
[1] = biological target: T1, rat RXFP1 receptor (rat) (UniProt Q6R6I6)
T1 sequence (looked up): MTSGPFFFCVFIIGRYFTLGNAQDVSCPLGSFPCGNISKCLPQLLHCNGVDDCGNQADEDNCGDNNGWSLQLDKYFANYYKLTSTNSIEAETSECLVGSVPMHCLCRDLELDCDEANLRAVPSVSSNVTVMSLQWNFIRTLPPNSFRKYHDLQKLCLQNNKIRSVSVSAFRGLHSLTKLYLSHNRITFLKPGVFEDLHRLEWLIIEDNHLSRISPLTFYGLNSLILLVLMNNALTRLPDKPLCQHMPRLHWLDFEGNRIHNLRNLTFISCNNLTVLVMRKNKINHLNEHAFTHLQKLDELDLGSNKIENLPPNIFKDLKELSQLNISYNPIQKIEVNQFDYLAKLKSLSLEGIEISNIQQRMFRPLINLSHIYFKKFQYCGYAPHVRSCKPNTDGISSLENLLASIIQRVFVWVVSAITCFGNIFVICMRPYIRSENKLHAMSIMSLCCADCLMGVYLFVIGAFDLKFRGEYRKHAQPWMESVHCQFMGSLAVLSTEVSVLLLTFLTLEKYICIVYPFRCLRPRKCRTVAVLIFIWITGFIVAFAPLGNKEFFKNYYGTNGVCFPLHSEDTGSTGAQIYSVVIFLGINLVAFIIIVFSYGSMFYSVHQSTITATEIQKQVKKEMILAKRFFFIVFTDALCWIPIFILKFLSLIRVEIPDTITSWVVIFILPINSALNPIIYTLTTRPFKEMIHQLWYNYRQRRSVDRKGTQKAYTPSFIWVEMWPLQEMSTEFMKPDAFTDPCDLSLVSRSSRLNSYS

[2] = biological target: T2, mouse RXFP1 receptor (mouse) (UniProt Q6R6I7)
T2 sequence (looked up): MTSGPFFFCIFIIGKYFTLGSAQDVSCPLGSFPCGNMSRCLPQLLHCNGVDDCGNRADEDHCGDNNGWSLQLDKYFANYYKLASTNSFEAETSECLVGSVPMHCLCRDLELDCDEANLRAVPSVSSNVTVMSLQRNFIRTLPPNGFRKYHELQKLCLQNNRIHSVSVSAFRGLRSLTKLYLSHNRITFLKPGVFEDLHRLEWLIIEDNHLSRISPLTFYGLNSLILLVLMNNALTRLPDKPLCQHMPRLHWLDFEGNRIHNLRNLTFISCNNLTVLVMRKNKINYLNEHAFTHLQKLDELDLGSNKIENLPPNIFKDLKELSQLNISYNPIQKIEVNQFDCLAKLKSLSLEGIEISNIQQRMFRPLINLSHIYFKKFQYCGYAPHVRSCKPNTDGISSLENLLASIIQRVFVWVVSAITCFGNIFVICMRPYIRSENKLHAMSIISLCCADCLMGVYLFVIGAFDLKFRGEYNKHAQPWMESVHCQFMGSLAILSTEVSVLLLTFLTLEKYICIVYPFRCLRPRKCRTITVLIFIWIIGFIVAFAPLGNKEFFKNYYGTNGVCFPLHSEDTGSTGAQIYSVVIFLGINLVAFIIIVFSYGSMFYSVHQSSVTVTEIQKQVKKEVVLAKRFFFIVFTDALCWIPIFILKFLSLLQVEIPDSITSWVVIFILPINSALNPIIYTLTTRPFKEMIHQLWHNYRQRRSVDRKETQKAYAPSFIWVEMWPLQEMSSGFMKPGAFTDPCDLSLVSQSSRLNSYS

[3] = biological target: T3, cynomolgus monkey RXFP1 receptor (cynomolgus monkey)
T3 sequence: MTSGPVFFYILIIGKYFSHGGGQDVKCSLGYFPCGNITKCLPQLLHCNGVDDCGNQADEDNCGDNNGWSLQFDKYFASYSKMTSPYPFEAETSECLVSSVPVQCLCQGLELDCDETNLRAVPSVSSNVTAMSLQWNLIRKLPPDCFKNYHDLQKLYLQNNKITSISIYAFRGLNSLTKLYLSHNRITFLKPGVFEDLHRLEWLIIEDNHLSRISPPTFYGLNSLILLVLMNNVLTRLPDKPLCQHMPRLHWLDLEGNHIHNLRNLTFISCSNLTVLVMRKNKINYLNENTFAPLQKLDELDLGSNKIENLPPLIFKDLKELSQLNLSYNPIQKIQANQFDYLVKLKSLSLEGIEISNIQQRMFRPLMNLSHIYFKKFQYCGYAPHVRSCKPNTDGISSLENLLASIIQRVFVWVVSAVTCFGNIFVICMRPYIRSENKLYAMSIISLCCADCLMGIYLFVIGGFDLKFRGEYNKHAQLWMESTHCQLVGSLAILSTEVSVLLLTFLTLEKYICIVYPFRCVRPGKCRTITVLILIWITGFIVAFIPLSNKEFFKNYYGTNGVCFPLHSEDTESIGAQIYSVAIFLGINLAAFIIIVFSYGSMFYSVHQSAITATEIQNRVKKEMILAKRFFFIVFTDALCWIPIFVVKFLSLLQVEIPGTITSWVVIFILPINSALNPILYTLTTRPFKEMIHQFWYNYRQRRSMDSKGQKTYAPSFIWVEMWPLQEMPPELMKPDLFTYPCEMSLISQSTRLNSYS

[4] = biological target: human RXFP2 receptor (human) (UniProt Q8WXD0)
[5] = biological target: dog RXFP1 receptor (dog)
[6] = biological target: T4, human RXFP1 receptor (human) (UniProt Q9HBX9)
T4 sequence (looked up): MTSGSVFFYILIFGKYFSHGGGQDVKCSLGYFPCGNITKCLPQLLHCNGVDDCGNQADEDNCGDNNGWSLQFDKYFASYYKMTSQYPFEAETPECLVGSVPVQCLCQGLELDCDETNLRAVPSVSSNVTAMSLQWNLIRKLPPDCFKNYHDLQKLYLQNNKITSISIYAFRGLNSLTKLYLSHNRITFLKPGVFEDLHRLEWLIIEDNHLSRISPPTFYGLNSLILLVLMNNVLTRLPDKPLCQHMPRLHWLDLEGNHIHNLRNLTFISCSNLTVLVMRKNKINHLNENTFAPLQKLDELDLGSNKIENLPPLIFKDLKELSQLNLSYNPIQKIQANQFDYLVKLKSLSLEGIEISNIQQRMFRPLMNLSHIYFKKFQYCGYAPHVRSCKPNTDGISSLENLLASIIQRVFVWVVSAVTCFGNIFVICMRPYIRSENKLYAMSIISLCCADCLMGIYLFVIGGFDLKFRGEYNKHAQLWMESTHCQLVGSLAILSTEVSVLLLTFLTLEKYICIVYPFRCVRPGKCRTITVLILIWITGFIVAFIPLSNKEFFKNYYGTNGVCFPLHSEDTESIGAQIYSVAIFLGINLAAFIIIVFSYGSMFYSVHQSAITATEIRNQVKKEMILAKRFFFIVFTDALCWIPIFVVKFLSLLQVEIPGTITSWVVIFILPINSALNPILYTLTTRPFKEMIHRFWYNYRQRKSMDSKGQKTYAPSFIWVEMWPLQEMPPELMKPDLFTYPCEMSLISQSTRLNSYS

EC50 (nM), cAMP production in CHO-K1 cells with receptor overexpression [1]: 10.5 nM
EC50 (nM), cAMP production in CHO-K1 cells with receptor overexpression [2]: 23.4 nM
EC50 (nM), cAMP production in CHO-K1 cells with receptor overexpression [3]: 21.8 nM
EC50 (nM), cAMP production in CHO-K1 cells with receptor overexpression [4]: 1350 nM
EC50 (nM), cAMP production in CHO-K1 cells with receptor overexpression [5]: 3040 nM
EC50 (nM), cAMP production in CHO-K1 cells with receptor overexpression [6]: 25.6 nM
EC50 (nM), cAMP production in THP1 cells, 1% HSA [6]: 15.8 nM
EC50 (nM), cAMP production in THP1 cells, without HSA [6]: 10.3 nM
B1: 0054 (protein)
chain: EVQLLESGGGLVQPGGSLRLSCAASGRYIDETAVAWFRQAPGKGREFVAGIGGGVDITYYADSVKGRFTISRDNSKNTLYLQMNSLRPEDTAVYYCAARPGRPLITSKVADLYPYWGQGTLVTVSSGGGGQGGGGQGGGGQGGGGQGGGGQSWMEEVIKLCGRELVRAQIAICGMSTWSGGGSGGSGGGQLYSALANKCCHVGCTKRSLARFC
